Experimental data reported in patent publication US20180362665A1.

Key:
[1] = molecular target: human ADAMTS13 (in normal human plasma) (human) (UniProt Q76LX8); test: cell-based or functional assay
[2] = molecular target: human ADAMTS13 (in normal human plasma) (human) (UniProt Q76LX8); test: sandwich ELISA, antibody coated 10 to 0.02 µg/mL, constant 15% NHP, detection with biotinylated 17G2 and 19H4

Sequence of human ADAMTS13 (in normal human plasma) (human) (Q76LX8 75-1427): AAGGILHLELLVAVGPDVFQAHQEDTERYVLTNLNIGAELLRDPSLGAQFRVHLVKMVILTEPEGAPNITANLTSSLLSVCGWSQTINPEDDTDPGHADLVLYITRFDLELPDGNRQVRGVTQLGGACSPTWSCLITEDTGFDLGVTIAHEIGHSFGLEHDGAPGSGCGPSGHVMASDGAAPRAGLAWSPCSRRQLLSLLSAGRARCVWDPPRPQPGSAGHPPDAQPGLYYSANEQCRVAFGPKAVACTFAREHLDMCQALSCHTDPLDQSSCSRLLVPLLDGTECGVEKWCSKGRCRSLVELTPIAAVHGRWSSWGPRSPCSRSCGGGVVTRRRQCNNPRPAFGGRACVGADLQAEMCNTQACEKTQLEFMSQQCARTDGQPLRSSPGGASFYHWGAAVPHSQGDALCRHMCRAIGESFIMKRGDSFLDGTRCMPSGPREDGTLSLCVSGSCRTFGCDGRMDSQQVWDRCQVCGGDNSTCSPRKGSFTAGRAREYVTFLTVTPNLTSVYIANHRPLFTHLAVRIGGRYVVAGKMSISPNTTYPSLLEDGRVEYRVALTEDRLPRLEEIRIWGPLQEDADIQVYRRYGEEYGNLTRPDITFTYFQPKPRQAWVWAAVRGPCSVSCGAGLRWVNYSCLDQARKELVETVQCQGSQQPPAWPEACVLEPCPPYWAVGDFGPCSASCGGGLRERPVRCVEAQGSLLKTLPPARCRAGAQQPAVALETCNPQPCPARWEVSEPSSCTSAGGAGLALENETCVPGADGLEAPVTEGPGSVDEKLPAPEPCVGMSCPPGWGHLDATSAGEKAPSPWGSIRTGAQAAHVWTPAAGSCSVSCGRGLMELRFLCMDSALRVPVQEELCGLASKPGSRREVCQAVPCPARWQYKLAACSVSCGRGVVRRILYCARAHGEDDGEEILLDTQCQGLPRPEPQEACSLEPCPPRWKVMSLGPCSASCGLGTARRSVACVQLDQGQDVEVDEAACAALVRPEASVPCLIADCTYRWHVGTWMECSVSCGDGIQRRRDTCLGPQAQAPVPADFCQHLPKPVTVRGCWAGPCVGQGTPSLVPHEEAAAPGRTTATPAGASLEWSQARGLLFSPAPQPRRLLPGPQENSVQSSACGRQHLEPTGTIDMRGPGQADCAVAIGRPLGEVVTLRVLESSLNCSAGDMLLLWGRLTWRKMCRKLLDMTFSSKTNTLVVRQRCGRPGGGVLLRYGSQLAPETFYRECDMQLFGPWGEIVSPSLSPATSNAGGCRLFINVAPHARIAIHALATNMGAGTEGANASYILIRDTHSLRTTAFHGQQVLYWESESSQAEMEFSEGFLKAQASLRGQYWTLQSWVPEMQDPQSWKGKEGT

B1: anti-ADAMTS13 monoclonal antibody 17C7 (antibody, V domains shown)
VH: EVQLVESGGDLVKSGGSLKLSCAASGFIFSNYAMSWVRQTPEKRLEWGATITTGGFYTFYSDSVKGRFTISRDNAKNTLYLQMSSLRSEDTAMYYCARHRYDDYYALDYWGQGTSVTVSS
VL: ENVLTQSPAIMSTSPGEKVTMTCNVSSSVSYMRWFQQKSSTSPKLWIYDTSKLASGVPGRFSGSGSGHSYSLTISSMEADDVATYYCFQGNGYPLTFGAGTKLELK
[1]
  half maximal inhibitory concentration (IC50) of ADAMTS13 activity in normal human plasma, FRETS-VWF73 assay: 0.47 µg/mL
[2]
  half maximal binding (Kd): 0.51 µg/mL
